B1: HuMAb 1.10C (anti-MET6) (antibody, V domains shown)
VH: EVQLVESGGGLVKPGGSLRLSCKASGFNFTNSWMSWVRQAPGKGLEWLGRIKSESDGGATRYAAPVTGRFSISRDDSRDMLFLQMNSLTTDDTAMYYCTTNKVTTNYWGQGTLVTVSS
VL: DIVMTQSPVTLAVSLGERATINCKSSQSLLYSSDNENYLTWYQQKPGQPPKLLIYWASVRESGIPDRFIGSGSVTDFTLTINNVQAEDVAVYYCQQFRYTPLTFGQGTTLEIK
notes: also called 1.100
B2: Fba peptide (synthetic, from fructose-bisphosphate aldolase) (peptide)
peptide: YGKDVKDLFDYAQE
B3: HuMAb 6.6K (anti-Met6) (antibody, V domains shown)
VH: QVQLVESGGGVVQPGRSLRLSCAASGFNFISYGMHWVRQAPGKGLEWVALISYDGSNKYYADSVKGRFTISRDNSKNTLYLQMNSLRAEDTAVYYCATEAYVETAMVPQYWGQGTLVTVSS
VL: SYELTQPPSVSVSPGQTARITCSGDALPKEYAYWYQQKSGQAPVVVIYEDSKRPSGIPERFSGSSSGTMATLTISGAQVEDEADYHCYSTDSSGNPVFGGGTKLTVL
B4: HuMAb 6.11C (anti-Fba) (antibody, V domains shown)
VH: QVQLVQSGAEVKKPGASVQVSCRTSGYTFINYFMHWVRQAPGQGLEWMGIINPNGGKTRYAQKFQGRLTVTRDTSTNTVYVELSNLRYEDTGLYFCARDPEGEVGFDYWGQGTQVTVSS
VL: SHELTQPPSVSVSPGQTARITCSGDALSKQYAYWYQQKPGQAPVVVIYKDNERPSGIPERFSGSSSGTTVTLTITGVQAEDEADYYCQSTDTSRAYYVFGTGTKVTVL
B5: HuMAb 1.11D (anti-Fba) (antibody, V domains shown)
VH: EVQLVQSGGGLVQPGGSLRLSCSASGFTFRTYAMSWVRQAPGKGLQWVSVISRSGDTTYHTDSVKGRFTISRDNSRNALYLQLDSLRAEDTALYYCAKTGNMAVGDRRTNYSYYYMDVWGKGTTVTVSS
VL: DIVMTQSPSTLSASVGDRVTITCRASQSIKYWLAWYQQKPGKAPKLLIYKASNLESGVPSRFSGSGSGTEFTLTISSLRPDDFATYYCQQYNSYPLTFGGGTVEIK
B6: HuMAb 1.B10 (anti-Met6) (antibody, V domains shown)
VH: EVQLVQSGGGLVKPGGSLRLSCAASGFIFSNAWMNWVRQAPGKGLEWVGRIKRESDSGTTDYGAAVKGRFTISRDDSKYTLYLQMNSLKTDDTAVYYCTTGWADYWGQGTLVTVSS
VL: LIQPPSVSVSPGQTARITCSGDALPNKYAYWYQQKPGQAPSVVMFRDNERPSGIPERFSGSSSGTTVTLTISGVQAEDESDFYCQSTDSNGAWVFGGGTKLTVL
B7: MET6 peptide (synthetic, from methyltetrahydropteroyltriglutamate homocysteine methyltransferase) (peptide)
peptide: PRIGGQRELKKITE
notes: also called MEM

Assay [1] deals with T1, MET6-Biotin peptide (Candida albicans, not fully specified; C-terminal K-Biotin (PRIGGQRELKKITEPGGSGGSGK-Biotin)).
T1 construct: also called btn-Met6 peptide; MFT6-Biotin
T1 peptide: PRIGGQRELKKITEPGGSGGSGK
In words: bio-layer interferometry (Octet), steady state analysis, met6-btn on streptavidin sensors. In general terms: BLI is a label-free optical method that tracks binding on a fibre tip over time.

Assay [2] deals with T1, MET6-Biotin peptide. In words: BLI (Octet HTX), steady-state analysis, biotinylated peptide on streptavidin sensor, IgG in solution; steady-state measurement (FIG. 5).
The target in assay [3] is T1, MET6-Biotin peptide. The assay can be described thus: BLI (BLITz), btn-Met6 peptide on streptavidin tip, IgG in solution.
Protocol: (§1) Binding experiments were performed using a FortèBio BLITz Bi-layer interferometer at 25° C. […] Loaded sensors were dipped into serial dilutions of the cognate IgG.
Assay [4] concerns the target T2, full-length His-tagged recombinant Met6 protein from C. albicans (Candida albicans, UniProt P82610 2-767).
T2 construct: mature; also called His-Met6; whole length recombinant MET6; not shown: six-histidine (6-His) amino terminal tag from vector pRSET A
T2 sequence (looked up): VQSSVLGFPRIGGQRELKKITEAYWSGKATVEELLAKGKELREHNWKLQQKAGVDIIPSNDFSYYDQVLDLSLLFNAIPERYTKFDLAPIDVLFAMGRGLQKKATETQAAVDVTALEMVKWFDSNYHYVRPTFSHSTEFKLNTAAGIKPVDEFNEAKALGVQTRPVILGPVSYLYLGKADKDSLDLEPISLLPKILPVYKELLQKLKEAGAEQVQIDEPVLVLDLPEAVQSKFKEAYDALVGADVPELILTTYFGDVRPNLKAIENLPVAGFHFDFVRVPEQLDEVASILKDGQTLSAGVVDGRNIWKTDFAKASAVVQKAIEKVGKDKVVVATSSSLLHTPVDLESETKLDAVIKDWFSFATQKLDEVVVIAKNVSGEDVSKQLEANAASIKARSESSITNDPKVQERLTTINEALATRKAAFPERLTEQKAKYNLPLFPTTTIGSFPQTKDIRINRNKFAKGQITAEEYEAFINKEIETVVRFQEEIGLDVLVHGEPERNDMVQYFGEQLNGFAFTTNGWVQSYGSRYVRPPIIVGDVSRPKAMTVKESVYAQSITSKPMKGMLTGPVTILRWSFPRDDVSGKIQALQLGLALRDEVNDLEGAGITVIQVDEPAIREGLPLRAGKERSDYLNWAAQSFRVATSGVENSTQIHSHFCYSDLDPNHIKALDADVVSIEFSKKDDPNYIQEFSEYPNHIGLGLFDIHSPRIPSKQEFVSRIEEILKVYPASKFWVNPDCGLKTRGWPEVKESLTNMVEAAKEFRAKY
In words: bio-layer interferometry (BLITz), His-Met6 (C. albicans) from bacterial supernatant loaded on an anti-penta-His sensor, antibody in the association step.

The target of assay [5] is B2. The assay can be described thus: ELISA on peptide-coated wells, HRP goat anti-human IgG, absorbance at 450 nm. In general terms: ELISA stands for enzyme-linked immunosorbent assay.
In assay [6] the target is B7. Described as above.
For assay [7], the target named is T1, MET6-Biotin peptide. The assay can be described thus: bio-layer interferometry (Octet), met6-btn loaded on streptavidin sensors, kinetic 1:1 fit.
Assay [8] concerns the target T1, MET6-Biotin peptide. In words: bio-layer interferometry (Octet), met6-btn loaded on streptavidin sensors, kinetic 1:1 fit; column head kdis(1/s).
Assay [9] has as its target T3, full-length His-tagged recombinant Fba protein from C. albicans (Candida albicans, UniProt Q9URB4 2-359).
T3 construct: mature; also called His-Fba; whole length recombinant Fba (C. albicans); not shown: six-histidine (6-His) amino terminal tag from vector pRSET A
T3 sequence (looked up): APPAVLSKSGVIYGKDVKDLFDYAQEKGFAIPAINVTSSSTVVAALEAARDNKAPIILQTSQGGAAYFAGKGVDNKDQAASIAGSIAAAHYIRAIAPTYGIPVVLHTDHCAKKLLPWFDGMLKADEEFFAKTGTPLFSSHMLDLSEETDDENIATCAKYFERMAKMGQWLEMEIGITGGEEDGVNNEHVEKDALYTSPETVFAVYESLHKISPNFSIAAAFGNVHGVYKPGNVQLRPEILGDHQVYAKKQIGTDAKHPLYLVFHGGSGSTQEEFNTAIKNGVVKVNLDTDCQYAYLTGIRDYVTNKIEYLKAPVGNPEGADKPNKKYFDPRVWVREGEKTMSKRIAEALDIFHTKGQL
In words: bio-layer interferometry (BLITz), His-Fba (C. albicans) loaded on an anti-penta-His sensor, antibody in the association step.

Assay [10] addresses T1, MET6-Biotin peptide. The assay can be described thus: BLI (Octet HTX), kinetic 1:1 fit, biotinylated peptide on streptavidin sensor, IgG in solution; kinetic measurement (FIG. 4).
The target in assay [11] is T1, MET6-Biotin peptide. In words: BLI (BLITz), btn-Met6 peptide on streptavidin tip, IgG in solution; BLITz run of Dec. 3, 2018.
The assay “HuMAb 1.11D (anti-Fba)” addresses B5. The assay can be described thus: competition ELISA: 1.11D mixed with free Fba peptide and added to Fba peptide-coated wells; the competitor is the coated Fba peptide.
For assay [12], the target named is T4, Fba-Biotin peptide (Candida albicans, not fully specified; C-terminal K-Biotin (YGKDVKDLFDYAQEGGSGGSGK-Biotin)).
T4 construct: also called btn-Fba peptide
T4 peptide: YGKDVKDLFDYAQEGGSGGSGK
In words: BLI (BLITz), btn-Fba peptide on streptavidin tip, IgG in solution.
Protocol: as §1

For assay [13], the target named is T4, Fba-Biotin peptide. In words: bio-layer interferometry (Octet), Fba-btn at 10 ng/ml loaded on streptavidin sensors, kinetic 1:1 fit.
Assay [14] concerns the target T4, Fba-Biotin peptide. In words: BLI (Octet HTX), steady-state analysis, biotinylated peptide on streptavidin sensor, IgG in solution; steady-state measurement (FIG. 5).
The target in assay [15] is T4, Fba-Biotin peptide. The assay can be described thus: bio-layer interferometry (Octet), steady state analysis, Fba-btn on streptavidin sensors.
The target in assay [16] is T4, Fba-Biotin peptide. In words: bio-layer interferometry (Octet), Fba-btn at 10 ng/ml loaded on streptavidin sensors, kinetic 1:1 fit; column head kdis(1/s).
The target of assay [17] is T4, Fba-Biotin peptide. In words: BLI (Octet HTX), kinetic 1:1 fit, biotinylated peptide on streptavidin sensor, IgG in solution; kinetic measurement (FIG. 4).
The assay “HuMAb 1.10C (anti-MET6)” deals with B1. In words: competition ELISA: 1.10C mixed with free MET6 peptide and added to MET6 peptide-coated wells; the competitor is the coated MET6 peptide.

What is called Kd is the concentration at which binding is half-saturated. The low end stands for higher affinity, the high end for lower affinity. In general, koff refers to a measure of how fast the partners let go of each other. The low end stands for a long-lived complex, the high end for a short-lived complex. The kon is the rate constant with which the complex forms.

Turning to B1, the dissociation constant Kd in the assay with MET6-Biotin peptide [1] was 310 nM; in the assay with MET6-Biotin peptide [2] it was around 310 nM; in the assay with MET6-Biotin peptide [7] it was 179 nM; with MET6-Biotin peptide [10], around 180 nM; in the assay with MET6-Biotin peptide [11], 180 nM. Also, the figures for the off-rate constant (koff) with MET6-Biotin peptide [3] and with MET6-Biotin peptide [8] were 0.0055 s⁻¹ and 0.0124 s⁻¹, respectively. Moreover, the values for the kon with MET6-Biotin peptide [3] and in the assay with MET6-Biotin peptide [7] were 31000 M⁻¹ s⁻¹ and 69500 M⁻¹ s⁻¹, respectively. Moreover, the binding result in assay [4] is given as “binds”; in [5], “no binding”; in assay [6], “binds”; in [9], “no binding”.

With B2, the “IC50 (read off the curve)” value in the assay with HuMAb 1.11D (anti-Fba) was around 4 µg/mL.

In the assay with MET6-Biotin peptide [3], B3 came in with a Kd of 160 nM, a koff of 0.012 s⁻¹ and an on-rate (kon) of 75000 M⁻¹ s⁻¹.

In the assay with Fba-Biotin peptide [12], B4 returned a dissociation constant Kd of 120 nM, an off-rate constant (koff) of 0.06 s⁻¹ and an on-rate constant (kon) of 490000 M⁻¹ s⁻¹.

With B5, the Kd with Fba-Biotin peptide [13] is 58.5 nM; in the assay with Fba-Biotin peptide [12], 19.8 nM; with Fba-Biotin peptide [14], around 77 nM; with Fba-Biotin peptide [15], 77 nM; in the assay with Fba-Biotin peptide [17] it was around 58 nM. Also, the results for the kon with Fba-Biotin peptide [13] and with Fba-Biotin peptide [12] were 111000 M⁻¹ s⁻¹ and 38000 M⁻¹ s⁻¹, respectively. The koff was 0.00073 s⁻¹ with Fba-Biotin peptide [12] and 0.00646 s⁻¹ in the assay with Fba-Biotin peptide [16].

Regarding B6, in the assay with MET6-Biotin peptide [3], binding was characterised by a dissociation constant (Kd) of 31 nM, the koff was 0.0064 s⁻¹ and the association rate constant (kon) worked out at 210000 M⁻¹ s⁻¹.

As for B7, the “IC50 (read off the curve)” value in the assay with HuMAb 1.10C (anti-MET6) is around 2 µg/mL.
